According to patent EP3443010B1:

The binders below were run against recombinant hSIRPa (Sino Biologicals, reference 11612-H08H) (human) (UniProt P78324) (assay: ELISA, hSIRPa (Sino 11612-H08H) coated at 0.5 ug/ml, anti-human IgG detection; first experiment).
recombinant hSIRPa (Sino Biologicals, reference 11612-H08H) (human), sequence (P78324 31-370): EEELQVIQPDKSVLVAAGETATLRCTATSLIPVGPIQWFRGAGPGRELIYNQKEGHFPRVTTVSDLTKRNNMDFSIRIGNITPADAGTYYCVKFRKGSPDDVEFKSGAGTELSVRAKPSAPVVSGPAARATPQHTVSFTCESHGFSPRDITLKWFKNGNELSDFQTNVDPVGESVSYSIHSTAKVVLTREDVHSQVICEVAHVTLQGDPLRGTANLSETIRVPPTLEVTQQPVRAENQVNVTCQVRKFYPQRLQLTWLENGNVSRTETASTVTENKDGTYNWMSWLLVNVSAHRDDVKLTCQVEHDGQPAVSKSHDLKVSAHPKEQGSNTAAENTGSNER

| EC50 [ng/mL] | Binder |
| --- | --- |
| 4 | HFLB (antibody, human IgG4 S228P, kappa, V domains shown) VH: EVQLVQSGAEVKKPGESLRISCKASGYSFTSYWVHWVRQMPGKGLEWMGNIDPSDSDTHYSPSFQGHVTLSVDKSISTAYLQLSSLKASDTAMYYCVRGGTGTMAYFAYWGQGTLVTVSS VL: DVVMTQSPLSLPVTLGQPASISCRSSQSLVHSYGNTYLYWFQQRPGQSPRLLIYRVSNRFSGVPDRFSGSGSGTDFTLKISRVEAEDVGVYYCFQGTHVPYTFGGGTKVEIKR |
| 5.1 | HFLA (antibody, human IgG4 S228P, kappa, V domains shown) VH: EVQLVQSGAEVKKPGESLRISCKASGYSFTSYWVHWVRQMPGKGLEWMGNIDPSDSDTHYSPSFQGHVTLSVDKSISTAYLQLSSLKASDTAMYYCVRGGTGTMAYFAYWGQGTLVTVSS VL: DVVMTQSPLSLPVTLGQPASISCRSSQSLVHSYGNTYLYWYQQRPGQSPRLLIYRVSNRFSGVPDRFSGSGSGTDFTLKISRVEAEDVGVYFCFQGTHVPYTFGGGTKVEIKR |

More lines, now with the values behind:

| Binder | EC50 [ng/mL] |
| --- | --- |
| HALA (antibody, human IgG4 S228P, kappa, V domains shown) VH: EVQLVQSGAEVKKPGESLRISCKASGYTFTSYWVHWVRQMPGKGLEWIGNIDPSDSDTHYNQKFKDHVTLSVDKSISTAYLQLSSLKASDTAMYYCVRGGTGTMAWFAYWGQGTLVTVSS VL: DVVMTQSPLSLPVTLGQPASISCRSSQSLVHSYGNTYLYWYQQRPGQSPRLLIYRVSNRFSGVPDRFSGSGSGTDFTLKISRVEAEDVGVYFCFQGTHVPYTFGGGTKVEIKR | 3.9 |
| HEFLA (antibody, human IgG4 S228P, kappa, V domains shown) VH: EVQLVQSGAEVKKPGESLRISCKASGYSFTSYWVHWVRQMPGKGLEWMGNIDPSDSDTHYSPSFQGHVTLSVDKSISTAYLQLSSLKASDTAMYYCVRGGTGTLAYFAYWGQGTLVTVSS VL: DVVMTQSPLSLPVTLGQPASISCRSSQSLVHSYGNTYLYWYQQRPGQSPRLLIYRVSNRFSGVPDRFSGSGSGTDFTLKISRVEAEDVGVYFCFQGTHVPYTFGGGTKVEIKR | 7.1 |
| HEFLB (antibody, human IgG4 S228P, kappa, V domains shown) VH: EVQLVQSGAEVKKPGESLRISCKASGYSFTSYWVHWVRQMPGKGLEWMGNIDPSDSDTHYSPSFQGHVTLSVDKSISTAYLQLSSLKASDTAMYYCVRGGTGTLAYFAYWGQGTLVTVSS VL: DVVMTQSPLSLPVTLGQPASISCRSSQSLVHSYGNTYLYWFQQRPGQSPRLLIYRVSNRFSGVPDRFSGSGSGTDFTLKISRVEAEDVGVYYCFQGTHVPYTFGGGTKVEIKR | 4.4 |

What follows are binders tested against recombinant hSIRPa (Sino Biologicals, reference 11612-H08H) (human) (UniProt P78324) (assay: ELISA, hSIRPa (Sino 11612-H08H) coated at 0.5 ug/ml, anti-human IgG detection).

| EC50 [ng/mL] | Binder |
| --- | --- |
| 3.3 | Kwar23 (antibody, from another filing, V domains shown) VH: EVQLQQSGAELVKPGASVKLSCTASGFNIKDYYIHWVQQRTEQGLEWIGRIDPEDGETKYAPKFQDKATITADTSSNTAYLHLSSLTSEDTAVYYCARWGAYWGQGTLVTVSS VL: QIVLTQSPAIMSASPGEKVTLTCSASSSVSSSYLYWYQQKPGSSPKLWIYSTSNLASGVPARFSGSGSGTSYSLTISSMEAEDAASYFCHQWSSYPRTFGAGTKLELK |

What follows are binders tested against recombinant hSIRPa (Sino Biologicals, reference 11612-H08H) (human) (UniProt P78324) (assay: ELISA, hSIRPa (Sino 11612-H08H) coated at 0.5 ug/ml, anti-human IgG detection; second experiment).

| EC50 [ng/mL] | Binder |
| --- | --- |
| 4.61 | HELA (antibody, human IgG4 S228P, kappa, V domains shown) VH: EVQLVQSGAEVKKPGESLRISCKASGYSFTSYWVHWVRQMPGKGLEWMGNIDPSDSDTHYSPSFQGHVTLSVDKSISTAYLQLSSLKASDTAMYYCVRGGTGTLAWFAYWGQGTLVTVSS VL: DVVMTQSPLSLPVTLGQPASISCRSSQSLVHSYGNTYLYWYQQRPGQSPRLLIYRVSNRFSGVPDRFSGSGSGTDFTLKISRVEAEDVGVYFCFQGTHVPYTFGGGTKVEIKR |
| 4.13 | HELB (antibody, human IgG4 S228P, kappa, V domains shown) VH: EVQLVQSGAEVKKPGESLRISCKASGYSFTSYWVHWVRQMPGKGLEWMGNIDPSDSDTHYSPSFQGHVTLSVDKSISTAYLQLSSLKASDTAMYYCVRGGTGTLAWFAYWGQGTLVTVSS VL: DVVMTQSPLSLPVTLGQPASISCRSSQSLVHSYGNTYLYWFQQRPGQSPRLLIYRVSNRFSGVPDRFSGSGSGTDFTLKISRVEAEDVGVYYCFQGTHVPYTFGGGTKVEIKR |
| 5.59 | HCLB (antibody, human IgG4 S228P, kappa, V domains shown) VH: EVQLVQSGAEVKKPGESLRISCKASGYSFTSYWVHWVRQMPGKGLEWMGNIDPSDSDTHYSPSFQGHVTLSVDKSISTAYLQLSSLKASDTAMYYCVRGGTGTMAWFAYWGQGTLVTVSS VL: DVVMTQSPLSLPVTLGQPASISCRSSQSLVHSYGNTYLYWFQQRPGQSPRLLIYRVSNRFSGVPDRFSGSGSGTDFTLKISRVEAEDVGVYYCFQGTHVPYTFGGGTKVEIKR |
| 5.6 | HCLA (antibody, human IgG4 S228P, kappa, V domains shown) VH: EVQLVQSGAEVKKPGESLRISCKASGYSFTSYWVHWVRQMPGKGLEWMGNIDPSDSDTHYSPSFQGHVTLSVDKSISTAYLQLSSLKASDTAMYYCVRGGTGTMAWFAYWGQGTLVTVSS VL: DVVMTQSPLSLPVTLGQPASISCRSSQSLVHSYGNTYLYWYQQRPGQSPRLLIYRVSNRFSGVPDRFSGSGSGTDFTLKISRVEAEDVGVYFCFQGTHVPYTFGGGTKVEIKR |

The binders below were run against recombinant hSIRPa (Sino Biologicals, reference 11612-H08H) (human) (UniProt P78324) (assay: ELISA, hSIRPa (Sino 11612-H08H) coated at 0.5 ug/ml, anti-human IgG detection; third experiment).

| EC50 [ng/mL] | Binder |
| --- | --- |
| 2.53 | HALB (antibody, human IgG4 S228P, kappa, V domains shown) VH: EVQLVQSGAEVKKPGESLRISCKASGYTFTSYWVHWVRQMPGKGLEWIGNIDPSDSDTHYNQKFKDHVTLSVDKSISTAYLQLSSLKASDTAMYYCVRGGTGTMAWFAYWGQGTLVTVSS VL: DVVMTQSPLSLPVTLGQPASISCRSSQSLVHSYGNTYLYWFQQRPGQSPRLLIYRVSNRFSGVPDRFSGSGSGTDFTLKISRVEAEDVGVYYCFQGTHVPYTFGGGTKVEIKR |
| 2.95 | HBLB (antibody, human IgG4 S228P, kappa, V domains shown) VH: EVQLVQSGAEVKKPGESLRISCKASGYSFTSYWVHWVRQMPGKGLEWMGNIDPSDSDTHYNQKFKDHVTLSVDKSISTAYLQLSSLKASDTAMYYCVRGGTGTMAWFAYWGQGTLVTVSS VL: DVVMTQSPLSLPVTLGQPASISCRSSQSLVHSYGNTYLYWFQQRPGQSPRLLIYRVSNRFSGVPDRFSGSGSGTDFTLKISRVEAEDVGVYYCFQGTHVPYTFGGGTKVEIKR |
| 2.68 | HBLA (antibody, human IgG4 S228P, kappa, V domains shown) VH: EVQLVQSGAEVKKPGESLRISCKASGYSFTSYWVHWVRQMPGKGLEWMGNIDPSDSDTHYNQKFKDHVTLSVDKSISTAYLQLSSLKASDTAMYYCVRGGTGTMAWFAYWGQGTLVTVSS VL: DVVMTQSPLSLPVTLGQPASISCRSSQSLVHSYGNTYLYWYQQRPGQSPRLLIYRVSNRFSGVPDRFSGSGSGTDFTLKISRVEAEDVGVYFCFQGTHVPYTFGGGTKVEIKR |
